Test results from PMC8872791, “MadR mediates acyl CoA-dependent regulation of mycolic acid desaturation in mycobacteria” (Proceedings of the National Academy of Sciences of the …, 2022).

T1: MadR (Mycobacterium tuberculosis H37Rv) (UniProt P9WMD9)
T1 sequence: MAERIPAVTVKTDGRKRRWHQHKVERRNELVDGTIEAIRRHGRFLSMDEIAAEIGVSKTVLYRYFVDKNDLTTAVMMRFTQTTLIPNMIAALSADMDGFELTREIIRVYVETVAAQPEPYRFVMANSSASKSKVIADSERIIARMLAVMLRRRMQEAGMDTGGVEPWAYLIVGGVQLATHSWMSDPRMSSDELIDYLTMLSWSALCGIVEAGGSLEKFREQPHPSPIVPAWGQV

T2: MadR (Mycobacterium tuberculosis H37Rv, UniProt P9WMD9 1-234)
T2 sequence: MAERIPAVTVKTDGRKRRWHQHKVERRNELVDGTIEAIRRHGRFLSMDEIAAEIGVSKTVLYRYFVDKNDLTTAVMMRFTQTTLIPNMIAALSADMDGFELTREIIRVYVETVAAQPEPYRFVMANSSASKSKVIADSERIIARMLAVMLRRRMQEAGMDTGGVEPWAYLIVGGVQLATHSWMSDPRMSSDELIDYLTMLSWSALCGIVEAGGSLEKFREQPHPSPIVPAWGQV


How the values were obtained:
[1] = biological target: T1, MadR (Mycobacterium tuberculosis H37Rv); experiment: EMSA
MadR = biological target: T2, MadR; experiment: EMSA; conditions: protein: recombinant; tags: His-tag implied (pET28a, cobalt IMAC); chain copies: 2; blunt

Row | Molecule | binding [1] | binding result (MadR)
1 | GGGCCGAACATACTCACCCGGATCGGAGGGCCGAGGACACGGTCGAACGAGGGGCATGACCCGGTGCGGGGCTTCTTGCACTCGGCATAGGCGAGTGCTAAGAATAACGTTGGCACTCGCGACCGGTGAGTGCTAGGTCGGGACGGTGAGGCCAGGCCCGTCGTCGCAGCGAGTGGCAGCGAGGACAACTTGAGCCGTCCGTCGCGGGCACTGCGCCCGGCCAGCGTAAGTAGCGGGGTTGCCGTCACCCGGTGACCCCCGTTTCATCCCCGATCCGGAGGAATCACTTCGCA (double strand) [hsp60 promoter] | no binding | 
2 | desA1 promoter -19/+31 (dsDNA) DNA 1: CAGTTATCTGTGTCTAATGGTTGCAGTCAATATATCTGTGTCTCTCGGTA DNA 2: TACCGAGAGACACAGATATATTGACTGCAACCATTAGACACAGATAACTG |  | binds
3 | desA2 promoter -36/+14 (dsDNA) DNA 1: TTCACGAAATCTGTGTATGCGAGTTACAGTTACCGCATGGCACAGAAACC DNA 2: GGTTTCTGTGCCATGCGGTAACTGTAACTCGCATACACAGATTTCGTGAA |  | binds
